Reference: the supplement of paper PMC5998384

How the values were obtained:
HeLa Kyoto [1] = assay: solubility in G1/S (NP-40 vs SDS abundance) (log2 ratio); higher = more soluble; details: cell cycle stage: G1/S
HeLa Kyoto [2] = assay: melting temperature (median over replicates), in situ; higher = more thermally stable
HeLa Kyoto [3] = assay: solubility change mitosis vs G1/S (difference of NP-40 vs SDS log2 ratios) (log2 ratio difference); higher = more soluble in mitosis
HeLa Kyoto [4] = assay: thermal stability score vs G1/S (z-score of summed log2 fold changes over temperatures); higher = more thermally stable than in G1/S
[5] = cell cycle stage: early G1 (4.5 h after nocodazole release)
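Wherever melting temperature (median over replicates), in situ is given: HeLa Kyoto cells synchronized by double thymidine or nocodazole block, proteins quantified by TMT10plex mass spectrometry, three independent biological replicates.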
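Wherever solubility change mitosis vs G1/S (difference of NP-40 vs SDS log2 ratios) is given: synchronized HeLa Kyoto cells (double thymidine block for G1/S, nocodazole release for mitosis), protein amounts in NP-40 versus SDS lysates quantified by mass spectrometry, three biological replicates.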
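Wherever solubility in G1/S (NP-40 vs SDS abundance) is given: HeLa Kyoto cells arrested at G1/S by double thymidine block, proteins quantified by TMT10plex mass spectrometry in mild NP-40 versus SDS extracts, three biological replicates.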
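Wherever thermal stability score vs G1/S (z-score of summed log2 fold changes over temperatures) is given: synchronized HeLa Kyoto cells, proteins quantified by TMT10plex mass spectrometry, three biological replicates, mitosis taken 0.5 h after nocodazole release, G1/S directly after double thymidine block.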

Sequence | solubility in G1/S (log2) (HeLa Kyoto [1]) | melting temperature (HeLa Kyoto [2]; cell cycle stage: G1/S) | melting temperature (HeLa Kyoto [2]; cell cycle stage: mitosis) | solubility change mitosis (log2) (HeLa Kyoto [3]) | thermal stability score (HeLa Kyoto [4]; [5]) | thermal stability score (HeLa Kyoto [4]; cell cycle stage: mitosis)
MASSGEDISNDDDDMHPAAAGMADGVHLLGFSDEILLHILSHVPSTDLILNVRRTCRKLAALCLDKSLIHTVLLQKDYQASEDKVRQLVKEIGREIQQLSMAGCYWLPGSTVEHVARCRSLVKVNLSGCHLTSLRLSKMLSALQHLRSLAIDVSPGFDASQLSSECKATLSRVRELKQTLFTPSYGVVPCCTSLEKLLLYFEILDRTREGAILSGQLMVGQSNVPHYQNLRVFYARLAPGYINQEVVRLYLAVLSDRTPQNLHAFLISVPGSFAESGATKNLLDSMARNVVLDALQLPKSWLNGSSLLQHMKFNNPFYFSFSRCTLSGGHLIQQVINGGKDLRSLASLNLSGCVHCLSPDSLLRKAEDDIDSSILETLVASCCNLRHLNLSAAHHHSSEGLGRHLCQLLARLRHLRSLSLPVCSVADSAPRADRAPAQPAMHAVPRGFGKKVRVGVQSCPSPFSGQACPQPSSVFWSLLKNLPFLEHLELIGSNFSSAMPRNEPAIRNSLPPCSRAQSVGDSEVAAIGQLAFLRHLTLAQLPSVLTGSGLVNIGLQCQQLRSLSLANLGMMGKVVYMPALSDMLKHCKRLRDLRLEQPYFSANAQFFQALSQCPSLQRLCLVSRSGTLQPDAVLAFMARCLQVVMCHLFTGESLATCKSLQQSLLRSFQAERPALNVVIFPLLHEGLTDVIRDVPLVHLDEITLFKSRVAEEPPNLWW [FBXL18] | 0.1 | 53.4 °C | 53 °C | -0.164 | -1.04 | -1.17
MASSRCPAPRGCRCLPGASLAWLGTVLLLLADWVLLRTALPRIFSLLVPTALPLLRVWAVGLSRWAVLWLGACGVLRATVGSKSENAGAQGWLAALKPLAAALGLALPGLALFRELISWGAPGSADSTRLLHWGSHPTAFVVSYAAALPAAALWHKLGSLWVPGGQGGSGNPVRRLLGCLGSETRRLSLFLVLVVLSSLGEMAIPFFTGRLTDWILQDGSADTFTRNLTLMSILTIASAVLEFVGDGIYNNTMGHVHSHLQGEVFGAVLRQETEFFQQNQTGNIMSRVTEDTSTLSDSLSENLSLFLWYLVRGLCLLGIMLWGSVSLTMVTLITLPLLFLLPKKVGKWYQLLEVQVRESLAKSSQVAIEALSAMPTVRSFANEEGEAQKFREKLQEIKTLNQKEAVAYAVNSWTTSISGMLLKVGILYIGGQLVTSGAVSSGNLVTFVLYQMQFTQAVEVLLSIYPRVQKAVGSSEKIFEYLDRTPRCPPSGLLTPLHLEGLVQFQDVSFAYPNRPDVLVLQGLTFTLRPGEVTALVGPNGSGKSTVAALLQNLYQPTGGQLLLDGKPLPQYEHRYLHRQVAAVGQEPQVFGRSLQENIAYGLTQKPTMEEITAAAVKSGAHSFISGLPQGYDTEVDEAGSQLSGGQRQAVALARALIRKPCVLILDDATSALDANSQLQVEQLLYESPERYSRSVLLITQHLSLVEQADHILFLEGGAIREGGTHQQLMEKKGCYWAMVQAPADAPE [TAP1] | -0.0535 | 49.8 °C | 50.5 °C | -0.112 | 0.594 | 1.74
MASTDYSTYSQAAAQQGYSAYTAQPTQGYAQTTQAYGQQSYGTYGQPTDVSYTQAQTTATYGQTAYATSYGQPPTGYTTPTAPQAYSQPVQGYGTGAYDTTTATVTTTQASYAAQSAYGTQPAYPAYGQQPAATAPTRPQDGNKPTETSQPQSSTGGYNQPSLGYGQSNYSYPQVPGSYPMQPVTAPPSYPPTSYSSTQPTSYDQSSYSQQNTYGQPSSYGQQSSYGQQSSYGQQPPTSYPPQTGSYSQAPSQYSQQSSSYGQQSSFRQDHPSSMGVYGQESGGFSGPGENRSMSGPDNRGRGRGGFDRGGMSRGGRGGGRGGMGSAGERGGFNKPGGPMDEGPDLDLGPPVDPDEDSDNSAIYVQGLNDSVTLDDLADFFKQCGVVKMNKRTGQPMIHIYLDKETGKPKGDATVSYEDPPTAKAAVEWFDGKDFQGSKLKVSLARKKPPMNSMRGGLPPREGRGMPPPLRGGPGGPGGPGGPMGRMGGRGGDRGGFPPRGPRGSRGNPSGGGNVQHRAGDWQCPNPGCGNQNFAWRTECNQCKAPKPEGFLPPPFPPPGGDRGRGGPGGMRGGRGGLMDRGGPGGMFRGGRGGDRGGFRGGRGMDRGGFGGGRRGGPGGPPGPLMEQMGGRRGGRGGPGKMDKGEHRQERRDRPY [EWSR1] | 0.0308 | 55.6 °C | 55.8 °C | 0.157 | 0.0358 | 0.453
MATAVSRPCAGRSRDILWRVLGWRIVASIVWSVLFLPICTTVFIIFSRIDLFHPIQWLSDSFSDLYSSYVIFYFLLLSVVIIIISIFNVEFYAVVPSIPCSRLALIGKIIHPQQLMHSFIHAAMGMVMAWCAAVITQGQYSFLVVPCTGTNSFGSPAAQTCLNEYHLFFLLTGAFMGYSYSLLYFVNNMNYLPFPIIQQYKFLRFRRSLLLLVKHSCVESLFLVRNFCILYYFLGYIPKAWISTAMNLHIDEQVHRPLDTVSGLLNLSLLYHVWLCGVFLLTTWYVSWILFKIYATEAHVFPVQPPFAEGSDECLPKVLNSNPPPIIKYLALQDLMLLSQYSPSRRQEVFSLSQPGGHPHNWTAISRECLNLLNGMTQKLILYQEAAATNGRVSSSYPVEPKKLNSPEETAFQTPKSSQMPRPSVPPLVKTSLFSSKLSTPDVVSPFGTPFGSSVMNRMAGIFDVNTCYGSPQSPQLIRRGPRLWTSASDQQMTEFSNPSPSTSISAEGKTMRQPSVIYSWIQNKREQIKNFLSKRVLIMYFFSKHPEASIQAVFSDAQMHIWALEGLSHLVAASFTEDRFGVVQTTLPAILNTLLTLQEAVDKYFKLPHASSKPPRISGSLVDTSYKTLRFAFRASLKTAIYRITTTFGEHLNAVQASAEHQKRLQQFLEFKE [NDC1] | -0.187 | 52.7 °C | 51.3 °C | 0.182 | -4.66 | -7.41
